By IC50 is commonly meant the concentration that inhibits the measured activity by half. A higher IC50 goes with a need for much substance.

The labels stand for the following.
B1: cyclic peptide CP8 (peptide)
peptide: CLYRDPLGVAGGMGC
modifications: not fully specified (bridges); cysteine pairing not given here
notes: source: synthetic peptide (manual solid phase Fmoc chemistry, iodine oxidation, RP-HPLC)
B2: cyclic peptide CP14 (peptide)
peptide: LYEDPLGVAGGMG
modifications: head-to-tail lactam cyclized (no template)
notes: source: synthetic peptide (manual solid phase Fmoc chemistry, RP-HPLC)
B3: linear peptide LP1 (peptide)
peptide: Suc-VSLYRDPLGVAGGMGVY-NH2
notes: as for B2
B4: cyclic peptide CP11 (peptide)
peptide: CYRDPLGVAGGMC
modifications: disulfide 1-13
notes: as for B1

Starred links: 1 amine or outer side, 2 acyl side, 3 side chain; linkers in the order of their positions; H or OH if unused. Positions of bridges follow the written chain, without caps; N, C: chain ends. No end group written: not given here. Suc = O=C(CCC(=O)[*:2])[*:1]

One test addresses T1, hemagglutinin (HA) ectodomain of A/New Caledonia/20/1999 (H1N1) (influenza A virus A/New …, biotin on the BirA site). The test is described as follows: cell-based or functional assay.
Conditions: not given
For the molecule B1, the “virus neutralization assay (VNA) EC50, H1/NCa virus” value (from here on “virus neutralization assay”) was 0.28 µM. In the case of B2, the “virus neutralization assay” value stood at 45.3 µM. Consider CYEDPLGVAGGMC (not fully specified; cysteine pairing not given here) [cyclic peptide CP12], for which the “virus neutralization assay” value stood at 58.3 µM.

The next test has as its target T1, hemagglutinin (HA) ectodomain of A/New …. The test is described as follows: AlphaScreen or HTRF. The conditions noted are these: both partners purified. In general terms: In Alpha technology, singlet oxygen from a donor bead excites a nearby acceptor bead.
As to CYRDPLGVAGEMC (not fully specified; cysteine pairing not given here) [cyclic peptide CP13], it took 12.8 µM to reach half-maximal inhibition (IC50). Still for that read-out and setting: the same measure for B3: 22.9 µM.

In the case of B1, the IC50 was 0.16 µM. As to B2, the concentration for half-maximal inhibition (IC50) is 1.24 µM. B4: inhibition was half-maximal at 4.99 µM (IC50). Same read-out and setting: as for CYEDPLGVAGGMC (not fully specified; cysteine pairing not given here) [cyclic peptide CP12], the figure is 4.95 µM.

(Values after paper PMC12714728 (npj Viruses, 2025).)
